The assay addresses purified BfpD assembly ATPase (enteropathogenic Escherichia coli (EPEC)).

Turning to purified BfpD assembly ATPase (enzyme), the stoichiometry N (as a rule, a count of units in the complex or per binding partner) amounted to 6.

For the origin of these results see PMC3338861.
